Results on three molecules are retold here after patent publication US20140274782A1, “AFFINITY REAGENTS AND METHODS FOR DETECTION, PURIFICATION, AND PROTEOMIC ANALYSIS OF METHYLATED PROTEINS” (The Board of Trustees of the Leland Stanford Junior …, priority 2013, published 2014).

The test system of one assay is 3×MBT domain of L3MBTL1. The assay can be described thus: Triple SILAC pull-down, 3xMBT/3xMBTD355N ratio (cytoplasmic, nuclear and chromatin fractions of 293T cells).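 As to all read-outs here: proteins quantified with MaxQuant, requiring at least two unique peptides and quantification in both label directions, normalized to the mean of proteins from a digested loading control.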 The format is binding, human. Particulars: SILAC ratio, pull-down 3xMBT vs 3xMBTD355N; for 3xMBT/D355N UNC Heavy: experiment with UNC0638 in heavy SILAC media; for 3xMBT/D355N UNC Light: experiment with UNC0638 in light SILAC media.

In the next assay the target is T1, G9a and GLP (Homo sapiens, UniProt Q96KQ7+Q9H9B1).
T1 sequence (Q96KQ7 2-1210 limits assumed): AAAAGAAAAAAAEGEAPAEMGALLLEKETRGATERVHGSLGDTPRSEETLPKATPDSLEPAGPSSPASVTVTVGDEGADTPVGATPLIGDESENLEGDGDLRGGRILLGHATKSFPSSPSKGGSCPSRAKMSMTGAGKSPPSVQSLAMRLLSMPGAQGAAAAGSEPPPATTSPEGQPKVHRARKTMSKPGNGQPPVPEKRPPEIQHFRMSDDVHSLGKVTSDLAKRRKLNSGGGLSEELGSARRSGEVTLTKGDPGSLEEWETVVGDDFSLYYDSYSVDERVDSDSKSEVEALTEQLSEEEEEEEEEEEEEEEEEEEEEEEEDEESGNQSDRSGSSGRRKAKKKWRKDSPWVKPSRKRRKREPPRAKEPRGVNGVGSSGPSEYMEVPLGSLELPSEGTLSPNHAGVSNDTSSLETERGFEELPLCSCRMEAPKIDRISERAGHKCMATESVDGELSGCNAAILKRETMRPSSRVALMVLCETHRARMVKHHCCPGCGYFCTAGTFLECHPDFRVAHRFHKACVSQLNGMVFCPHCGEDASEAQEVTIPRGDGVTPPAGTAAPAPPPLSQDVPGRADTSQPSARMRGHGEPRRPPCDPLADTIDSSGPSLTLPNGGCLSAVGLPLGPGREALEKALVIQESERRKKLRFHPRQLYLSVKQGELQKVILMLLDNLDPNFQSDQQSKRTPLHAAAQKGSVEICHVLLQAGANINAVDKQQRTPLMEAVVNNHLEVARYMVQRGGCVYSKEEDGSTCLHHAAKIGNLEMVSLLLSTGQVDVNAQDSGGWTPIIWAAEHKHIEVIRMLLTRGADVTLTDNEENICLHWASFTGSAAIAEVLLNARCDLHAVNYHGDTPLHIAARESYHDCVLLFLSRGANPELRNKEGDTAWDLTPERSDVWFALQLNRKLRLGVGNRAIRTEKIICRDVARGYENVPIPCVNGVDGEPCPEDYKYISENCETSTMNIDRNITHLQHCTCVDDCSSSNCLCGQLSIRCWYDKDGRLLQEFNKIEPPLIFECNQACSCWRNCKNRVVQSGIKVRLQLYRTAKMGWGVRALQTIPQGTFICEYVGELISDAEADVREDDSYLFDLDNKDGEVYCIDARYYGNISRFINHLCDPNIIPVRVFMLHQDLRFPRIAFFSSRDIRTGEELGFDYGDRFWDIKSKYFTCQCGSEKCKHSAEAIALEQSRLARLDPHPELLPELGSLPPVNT
T1 sequence (Q9H9B1 2-1298 limits assumed): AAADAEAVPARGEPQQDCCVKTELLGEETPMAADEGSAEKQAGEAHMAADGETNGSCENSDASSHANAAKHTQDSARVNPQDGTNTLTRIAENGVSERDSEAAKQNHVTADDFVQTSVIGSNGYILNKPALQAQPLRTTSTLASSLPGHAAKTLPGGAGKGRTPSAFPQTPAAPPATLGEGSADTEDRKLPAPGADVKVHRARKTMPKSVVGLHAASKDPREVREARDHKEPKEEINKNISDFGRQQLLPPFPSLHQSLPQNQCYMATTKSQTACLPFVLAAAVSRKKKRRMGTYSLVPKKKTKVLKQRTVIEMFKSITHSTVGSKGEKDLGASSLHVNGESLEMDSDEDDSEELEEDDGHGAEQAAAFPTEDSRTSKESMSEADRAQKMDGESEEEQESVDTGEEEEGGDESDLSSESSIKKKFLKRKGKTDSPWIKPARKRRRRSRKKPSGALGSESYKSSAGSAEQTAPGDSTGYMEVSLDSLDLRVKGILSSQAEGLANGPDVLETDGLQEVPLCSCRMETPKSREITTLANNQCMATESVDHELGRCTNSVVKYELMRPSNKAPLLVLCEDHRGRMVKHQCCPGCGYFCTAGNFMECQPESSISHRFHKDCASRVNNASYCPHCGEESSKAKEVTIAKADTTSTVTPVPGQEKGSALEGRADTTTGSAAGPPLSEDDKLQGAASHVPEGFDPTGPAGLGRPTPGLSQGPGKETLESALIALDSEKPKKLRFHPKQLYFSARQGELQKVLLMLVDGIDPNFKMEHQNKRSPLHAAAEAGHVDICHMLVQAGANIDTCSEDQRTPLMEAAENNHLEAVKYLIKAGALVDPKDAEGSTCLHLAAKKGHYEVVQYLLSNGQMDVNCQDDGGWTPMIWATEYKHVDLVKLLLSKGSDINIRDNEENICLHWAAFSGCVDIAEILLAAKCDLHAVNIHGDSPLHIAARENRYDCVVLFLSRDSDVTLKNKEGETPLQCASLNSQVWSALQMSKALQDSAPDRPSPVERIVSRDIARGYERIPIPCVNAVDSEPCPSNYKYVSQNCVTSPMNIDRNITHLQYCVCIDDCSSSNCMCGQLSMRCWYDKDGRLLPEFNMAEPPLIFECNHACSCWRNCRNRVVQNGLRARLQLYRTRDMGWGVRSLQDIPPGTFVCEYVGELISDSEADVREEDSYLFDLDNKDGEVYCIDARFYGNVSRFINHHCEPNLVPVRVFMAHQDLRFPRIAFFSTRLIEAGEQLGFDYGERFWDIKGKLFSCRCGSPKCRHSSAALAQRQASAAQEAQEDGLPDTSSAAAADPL
The assay can be described thus: Triple SILAC pull-down after UNC0638 treatment of 293T cells, DMSO/UNC0638 ratio of protein captured by 3×MBT.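 As to all read-outs here: mass spectrometry (Q-Exactive) SILAC quantitation, DMSO/UNC0638 ratio computed after subtracting 3×MBTD355N mutant pull-down background, only proteins with at least twofold 3×MBT over mutant signal considered.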 The format is cell-based. Further details: cells were treated for 24 hours with UNC0638 at 2.5 μM or DMSO vehicle control; endogenous in cells; host or cells: HEK 293T. Particulars: for Relative to UNC0638 UNC Heavy / Relative to UNC0638 UNC Light: SILAC ratio DMSO/UNC0638 of protein pulled down with 3xMBT; for Relative to UNC0638 UNC Heavy: UNC0638 in heavy SILAC media; for Relative to UNC0638 UNC Light: UNC0638 in light SILAC media; for Relative to UNC0638 Average: average of UNC Light and UNC Heavy experiments.

B1: ATXN2L (protein, UniProt Q8WWM7 1-1075, looked up)
Ataxin-2-like protein: MLKPQPLQQPSQPQQPPPTQQAVARRPPGGTSPPNGGLPGPLATSAAPPGPPAAASPCLGPVAAAGSGLRRGAEGILAPQPPPPQQHQERPGAAAIGSARGQSTGKGPPQSPVFEGVYNNSRMLHFLTAVVGSTCDVKVKNGTTYEGIFKTLSSKFELAVDAVHRKASEPAGGPRREDIVDTMVFKPSDVMLVHFRNVDFNYATKDKFTDSAIAMNSKVNGEHKEKVLQRWEGGDSNSDDYDLESDMSNGWDPNEMFKFNEENYGVKTTYDSSLSSYTVPLEKDNSEEFRQRELRAAQLAREIESSPQYRLRIAMENDDGRTEEEKHSAVQRQGSGRESPSLASREGKYIPLPQRVREGPRGGVRCSSSRGGRPGLSSLPPRGPHHLDNSSPGPGSEARGINGGPSRMSPKAQRPLRGAKTLSSPSNRPSGETSVPPPPAVGRMYPPRSPKSAAPAPISASCPEPPIGSAVPTSSASIPVTSSVSDPGVGSISPASPKISLAPTDVKELSTKEPGRTLEPQELARIAGKVPGLQNEQKRFQLEELRKFGAQFKLQPSSSPENSLDPFPPRILKEEPKGKEKEVDGLLTSEPMGSPVSSKTESVSDKEDKPPLAPSGGTEGPEQPPPPCPSQTGSPPVGLIKGEDKDEGPVAEQVKKSTLNPNAKEFNPTKPLLSVNKSTSTPTSPGPRTHSTPSIPVLTAGQSGLYSPQYISYIPQIHMGPAVQAPQMYPYPVSNSVPGQQGKYRGAKGSLPPQRSDQHQPASAPPMMQAAAAAGPPLVAATPYSSYIPYNPQQFPGQPAMMQPMAHYPSQPVFAPMLQSNPRMLTSGSHPQAIVSSSTPQYPSAEQPTPQALYATVHQSYPHHATQLHAHQPQPATTPTGSQPQSQHAAPSPVQHQAGQAPHLGSGQPQQNLYHPGALTGTPPSLPPGPSAQSPQSSFPQPAAVYAIHHQQLPHGFTNMAHVTQAHVQTGITAAPPPHPGAPHPPQVMLLHPPQSHGGPPQGAVPQSGVPALSASTPSPYPYIGHPQGEQPGQAPGFPGGADDRIREFSLAGGIWHGRAEGLQVGQDARVLGGE
As for B1, in the assay on 3×MBT domain of L3MBTL1, the “3xMBT/D355N UNC Heavy” value turned out to be 2.64 log base 2 and the “3xMBT/D355N UNC Light” value turned out to be 2.66 log base 2. Further, in the assay with G9a and GLP, the “Relative to UNC0638 UNC Heavy” value was 0.31 log base 2, the “Relative to UNC0638 UNC Light” value worked out at 0.12 log base 2 and the “Relative to UNC0638 Average” value is 0.21 log base 2.

B2: SEC23B (protein, UniProt Q15437 2-767, looked up)
Protein transport protein …: ATYLEFIQQNEERDGVRFSWNVWPSSRLEATRMVVPLACLLTPLKERPDLPPVQYEPVLCSRPTCKAVLNPLCQVDYRAKLWACNFCFQRNQFPPAYGGISEVNQPAELMPQFSTIEYVIQRGAQSPLIFLYVVDTCLEEDDLQALKESLQMSLSLLPPDALVGLITFGRMVQVHELSCEGISKSYVFRGTKDLTAKQIQDMLGLTKPAMPMQQARPAQPQEHPFASSRFLQPVHKIDMNLTDLLGELQRDPWPVTQGKRPLRSTGVALSIAVGLLEGTFPNTGARIMLFTGGPPTQGPGMVVGDELKIPIRSWHDIEKDNARFMKKATKHYEMLANRTAANGHCIDIYACALDQTGLLEMKCCANLTGGYMVMGDSFNTSLFKQTFQRIFTKDFNGDFRMAFGATLDVKTSRELKIAGAIGPCVSLNVKGPCVSENELGVGGTSQWKICGLDPTSTLGIYFEVVNQHNTPIPQGGRGAIQFVTHYQHSSTQRRIRVTTIARNWADVQSQLRHIEAAFDQEAAAVLMARLGVFRAESEEGPDVLRWLDRQLIRLCQKFGQYNKEDPTSFRLSDSFSLYPQFMFHLRRSPFLQVFNNSPDESSYYRHHFARQDLTQSLIMIQPILYSYSFHGPPEPVLLDSSSILADRILLMDTFFQIVIYLGETIAQWRKAGYQDMPEYENFKHLLQAPLDDAQEILQARFPMPRYINTEHGGSQARFLLSKVNPSQTHNNLYAWGQETGAPILTDDVSLQVFMDHLKKLAVSSAC
In the case of B2, in the assay on 3×MBT domain of L3MBTL1, the “3xMBT/D355N UNC Heavy” value is given as 3.24 log base 2 and the “3xMBT/D355N UNC Light” value is recorded as 3.16 log base 2. Moreover, in the assay with G9a and GLP, the “Relative to UNC0638 UNC Heavy” value stood at 0.17 log base 2, the “Relative to UNC0638 UNC Light” value is on record as 0.24 log base 2 and the “Relative to UNC0638 Average” value is listed as 0.21 log base 2.

B3: RFC1 (protein, UniProt P35251 1-1148, looked up)
Replication factor C subunit 1: MDIRKFFGVIPSGKKLVSETVKKNEKTKSDEETLKAKKGIKEIKVNSSRKEDDFKQKQPSKKKRIIYDSDSESEETLQVKNAKKPPEKLPVSSKPGKISRQDPVTYISETDEEDDFMCKKAASKSKENGRSTNSHLGTSNMKKNEENTKTKNKPLSPIKLTPTSVLDYFGTGSVQRSNKKMVASKRKELSQNTDESGLNDEAIAKQLQLDEDAELERQLHEDEEFARTLAMLDEEPKTKKARKDTEAGETFSSVQANLSKAEKHKYPHKVKTAQVSDERKSYSPRKQSKYESSKESQQHSKSSADKIGEVSSPKASSKLAIMKRKEESSYKEIEPVASKRKENAIKLKGETKTPKKTKSSPAKKESVSPEDSEKKRTNYQAYRSYLNREGPKALGSKEIPKGAENCLEGLIFVITGVLESIERDEAKSLIERYGGKVTGNVSKKTNYLVMGRDSGQSKSDKAAALGTKIIDEDGLLNLIRTMPGKKSKYEIAVETEMKKESKLERTPQKNVQGKRKISPSKKESESKKSRPTSKRDSLAKTIKKETDVFWKSLDFKEQVAEETSGDSKARNLADDSSENKVENLLWVDKYKPTSLKTIIGQQGDQSCANKLLRWLRNWQKSSSEDKKHAAKFGKFSGKDDGSSFKAALLSGPPGVGKTTTASLVCQELGYSYVELNASDTRSKSSLKAIVAESLNNTSIKGFYSNGAASSVSTKHALIMDEVDGMAGNEDRGGIQELIGLIKHTKIPIICMCNDRNHPKIRSLVHYCFDLRFQRPRVEQIKGAMMSIAFKEGLKIPPPAMNEIILGANQDIRQVLHNLSMWCARSKALTYDQAKADSHRAKKDIKMGPFDVARKVFAAGEETAHMSLVDKSDLFFHDYSIAPLFVQENYIHVKPVAAGGDMKKHLMLLSRAADSICDGDLVDSQIRSKQNWSLLPAQAIYASVLPGELMRGYMTQFPTFPSWLGKHSSTGKHDRIVQDLALHMSLRTYSSKRTVNMDYLSLLRDALVQPLTSQGVDGVQDVVALMDTYYLMKEDFENIMEISSWGGKPSPFSKLDPKVKAAFTRAYNKEAHLTPYSLQAIKASRHSTSPSLDSEYNEELNEDDSQSDEKDQDAIETDAMIKKKTKSSKPSKPEKDKEPRKGKGKSSKK
As for B3, in the assay on 3×MBT domain of L3MBTL1, the “3xMBT/D355N UNC Heavy” value is 1.29 log base 2 and the “3xMBT/D355N UNC Light” value is reported as −1.32 log base 2. Also, in the assay with G9a and GLP, the “Relative to UNC0638 UNC Heavy” value is 0.61 log base 2, the “Relative to UNC0638 UNC Light” value is −0.18 log base 2 and the “Relative to UNC0638 Average” value was found to be 0.21 log base 2.
